Consider two molecules from US20200277405A1, “COMPOSITION FOR ANTIBODY-DRUG CONJUGATE DIRECTED AGAINST TUMOR-CELL ASSOCIATED POLYSIALIC ACID” (Cornell University, priority 2019, published 2020).

Data set [1] addresses embryonic brain glycopeptides. As to conditions: against embryonic brain glycopeptides (Hayrinen et al.); read-out: previously reported Kd; cited from earlier work.
Data set [2] concerns cultured neurons. As to conditions: unconjugated antibody; cited from earlier work.
Data set [3] relates to SW2 cells. Put plainly: Colocalization microscopy, SW2. In kind it is cell-based, human. The settings on record: transferrin and LAMP-3 markers. The protocol: FIGS. 12A-12C depict colocalization of mo735 with markers that traffic to endolysosomal compartments. […] For LAMP-1 (right), confocal microscopic images were taken after labeling SH-SY5Y cells with ch735 or isotype antibody for 2 h. Following fixation and permeabilization, LAMP-1 antibody was applied and detected with anti-rabbit AF647 secondary. Anti-human IgG AF488 was used to detect ch735 or isotype antibody. […] Cross-sectional fluorescence profiles are shown at right with normalized pixel intensity for selected cells (marked with box in left confocal panels) versus distance across the cell for representative cross sections (marked with bar in right confocal panels).
SH—SY5Y or SW2 cells were plated at 20,000 cells/cm^2 on poly-L-lysine coated 35 mm glass bottom dishes and adhered overnight. To remove polySia, cells were treated as described above. To measure receptor-antibody internalization, cells were incubated with 150 nM AF488 labeled ch735, human IgG isotype control (ThermoFisher Scientific), mo735, or mouse IgG isotype control (anti-MBP mAb, NEB) and 100 nM AF647 transferrin or AF647 anti-LAMP-3 antibody (Santa Cruz) for 1 h. Cells were washed and then fixed as described above. […] The fluorescence intensity of the plot profile was analyzed using FIJI software. Fluorescence intensity was normalized to the maximum value for each channel.

Data set [4] relates to polySia in formalin-fixed, paraffin-embedded (FFPE) human tissue sections of SCLC. Put plainly: IHC of FFPE tissue sections. The text has this: FIGS. 6A-6D depict immunostaining of antibody ch735 to polySia-expressing cancer cells. […] Data are the geometric mean fluorescence intensity (MFI), with the values reported as the average of three replicates and the error represented as the standard deviation of the mean. […] Cells were stained with ch735, wheat germ agglutinin (WGA) to stain the cell membrane, and Hoescht to stain nuclei. Scale bars, 10 μm. […] Scale bars, 200 μm.
The avidin-biotin complex (ABC) immunoperoxidase method was performed essentially as previously described (Zhang et al., “Selection of Tumor Antigens as Targets for Immune Attack Using Immunohistochemistry: I. Focus on Gangliosides,” Int. J. Cancer 73:42-9 (1997), which is hereby incorporated by reference in its entirety). Briefly, the sections were quenched with 0.1% H2O2 in PBS for 15 min, blocked with avidin and biotin reagents (Vector, Burlingame, Calif.) for 10 min each, incubated in 10% serum from which the second antibody was raised and incubated with mAb 735 at 1 μg/ml for 1 h. This concentration was selected based on strong reactivity against known positive target cells and little or no background against stroma. The sections were subsequently incubated with biotinylated secondary antibodies for 30 min, and then incubated in ABC reagent per manufacturer's protocols (ABC Kit, Vector Laboratories, PK-6102) for 30 min. […]

Data set [5] relates to polySia-positive cell line SH-SY5Y. Nature of the data set: Time course of antibody internalization. In kind it is cell-based, human. The protocol:
(§1) FIGS. 10A-10E depict internalization of ch735 into polySia-positive cancer cells. […] Nuclei were stained by Hoescht (blue). Scale bar, 10 Fluorescence intensity was measured across the dotted line and normalized to the maximum value in each channel. Arrows indicate regions of colocalization. […] Nuclei were stained by Hoescht. Scale bar, 10 Fluorescence intensity was measured across the dotted line and normalized to the maximum value in each channel. Arrows indicate regions of colocalization. The inset show only the ch735 and DNA channels of the boxed region. […] Scale bar, 10 Fluorescence intensity was measured across the dotted white line and normalized to the maximum value in each channel. […]
(§2) To calculate percent internalization, pre-chilled cells were incubated with 50 nM ch735 on ice for 1 h and then washed to remove unbound antibodies. […] Cells were fixed in 2% paraformaldehyde for 20 min and then stained with AF488-labeled antibody against human IgG and analyzed by flow cytometry and FlowJo software. Receptor-antibody complex internalization was calculated using the geometric mean as percent fluorescent intensity loss at 37° C. relative to that on ice. For each sample, the geometric mean fluorescence intensity (MFI) of 10,000 cells was measured in triplicate.

Data set [6] has as its system polySia-positive cell lines SH-SY5Y, SW2, H69, and H82. Nature of the data set: Internalization assay, polySia-positive cell lines. The format is cell-based, human. The settings on record: after 1 h at 37° C.; each polySia-positive cell line. How it is done:
as §1, §2

The subject of data set [7] is polySia-negative MCF7 cells. Put plainly: Internalization assay, MCF7. The format is cell-based, human. The settings on record: after 1 h. The protocol: as §1, §2
Data set [8] deals with SH-SY5Y cells. Put plainly: Colocalization microscopy, SH-SY5Y. The settings on record: transferrin, LAMP-3, LAMP-1 markers. The format is cell-based, human. How it is done: as §1
FIGS. 12A-12C depict colocalization of mo735 with markers that traffic to endolysosomal compartments. […] Following fixation and permeabilization, LAMP-1 antibody was applied and detected with anti-rabbit AF647 secondary. […] Cross-sectional fluorescence profiles are shown at right with normalized pixel intensity for selected cells (marked with box in left confocal panels) versus distance across the cell for representative cross sections (marked with bar in right confocal panels).
SH—SY5Y or SW2 cells were plated at 20,000 cells/cm^2 on poly-L-lysine coated 35 mm glass bottom dishes and adhered overnight. […] The fluorescence intensity of the plot profile was analyzed using FIJI software. […]

B1: mo735: well-known mouse-derived IgG2a monoclonal antibody 735 targeting polysialic acid (antibody, V domains shown)
VH: QIQLQQSGPELVRPGASVKISCKASGYTFTDYYIHWVKQRPGEGLEWIGWIYPGSGNTKYNEKFKGKATLTVDTSSSTAYMQLSSLTSEDSAVYFCARGGKFAMDYWGQGTSVTVSS
VL: DVVMTQTPLSLPVSLGDQASISCRSSQSLVHSNGNTYLYWYLQKPGQSPKPLIYRVSNRFSGVPDRFSGSGSGTDFTLKISRVEAEDLGVYFCFQGTHVPYTFGGGTRLEIK
With B1, the Kd in data set [1] is around 5 nM. Further, in data set [2], the “complement-dependent cytotoxicity (CDC)” value is listed as “only limited complement-dependent cytotoxicity (CDC)”. The “compartments of accumulation after internalization (confocal)” value in data set [3] is “compartmentalized in early and recycling endosomes”. Besides, the “IHC staining of polySia” value in data set [4] (FFPE human SCLC tissue sections) is given as “strong staining”; in data set [4] (adjacent normal tissue, except bronchial epithelial cells and alveolar macrophages) it was “little to no staining”.

B2: ch735: chimeric human IgG1 polySia-specific mAb made by swapping variable regions of mouse mAb 735 (antibody, V domains shown)
VH: B1 VH
VL: B1 VL
For the molecule B2, the figures for the antibody internalized in data set [5] (15 min) and in data set [6] were around 30% and around 40%, respectively. Moreover, the maximum internalization in data set [5] (reached by 30 min) came to 40%. Further, the antibody internalization entry in data set [7] is “no internalization”. In addition, in data set [8], the “compartments of accumulation after internalization (confocal)” value is reported as “rapidly internalized in endosomal/lysosomal compartments”.

As usually defined, the Kd is a measure of binding affinity in units of concentration.
